The record followed here is PMC9046454.

The target in data set [1] is T1, nLuc-AFF (6*-50* duplication, 6-aa linker AAGASS) (UniProt P03069 226-281). Nature of the data set: luminescence switching.
Data set [2] has as its target T1, nLuc-AFF (6*-50* duplication, 6-aa …). Nature of the data set: fluorescence anisotropy. (In general: In fluorescence polarisation assays a small probe gives low polarisation when free and higher when bound to something large.)
Data set [3] has the same target. Description: luminescence ratio L460/L520 titration.
Data set [4] shares this target. Description: luminescence ratio L460/L520 titration. This is another data set of the same source.

T1 sequence (P03069 226-281): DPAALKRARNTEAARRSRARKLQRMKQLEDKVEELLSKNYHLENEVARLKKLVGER

B1: NC duplex (non-consensus) (dsDNA)
DNA 1: GTTCCAGGTTAAGAAGTGCTCTCAGGGTGGCGCGGC
DNA 2: GCCGCGCCACCCTGAGAGCACTTCTTAACCTGGAAC
Take B1: the binding result in data set [1] is on record as “no binding”.

B2: AP-1 duplex (dsDNA)
DNA 1: AGTGGAGATGACTCATCTCGTGC
DNA 2: GCACGAGATGAGTCATCTCCACT
In the case of B2, the Kd (usually a measure of binding affinity in units of concentration) in data set [2] amounted to 11.6 ± 2.5 nM; in data set [3] it was 14.3 ± 3.5 nM; in data set [4], 37 ± 11 nM.
